Measurements: patent US20110191904A1
Where two headings read alike, the source gives them in different places. Each block holds one molecule with its values, some of them ahead of it.

Experiments:
Assay in all cases: cell-based or functional assay
[1] = target: T1, Arabidopsis FAD2 (At3g12120) (Arabidopsis thaliana) (UniProt P46313)
T1 sequence (looked up): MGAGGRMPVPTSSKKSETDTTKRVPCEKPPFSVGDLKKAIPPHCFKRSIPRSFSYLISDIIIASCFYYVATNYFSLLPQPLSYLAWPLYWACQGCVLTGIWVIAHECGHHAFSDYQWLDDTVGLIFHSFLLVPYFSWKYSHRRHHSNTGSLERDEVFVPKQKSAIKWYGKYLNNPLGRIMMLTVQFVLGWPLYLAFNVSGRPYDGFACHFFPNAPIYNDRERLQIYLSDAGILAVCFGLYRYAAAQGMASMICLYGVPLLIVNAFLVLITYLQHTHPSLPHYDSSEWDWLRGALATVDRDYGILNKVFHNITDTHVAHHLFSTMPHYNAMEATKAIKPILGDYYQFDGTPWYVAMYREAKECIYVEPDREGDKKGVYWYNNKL

[2] = target: T2, Arabidopsis FAD3 (At2g29980) (Arabidopsis thaliana) (UniProt P48623)
T2 sequence (looked up): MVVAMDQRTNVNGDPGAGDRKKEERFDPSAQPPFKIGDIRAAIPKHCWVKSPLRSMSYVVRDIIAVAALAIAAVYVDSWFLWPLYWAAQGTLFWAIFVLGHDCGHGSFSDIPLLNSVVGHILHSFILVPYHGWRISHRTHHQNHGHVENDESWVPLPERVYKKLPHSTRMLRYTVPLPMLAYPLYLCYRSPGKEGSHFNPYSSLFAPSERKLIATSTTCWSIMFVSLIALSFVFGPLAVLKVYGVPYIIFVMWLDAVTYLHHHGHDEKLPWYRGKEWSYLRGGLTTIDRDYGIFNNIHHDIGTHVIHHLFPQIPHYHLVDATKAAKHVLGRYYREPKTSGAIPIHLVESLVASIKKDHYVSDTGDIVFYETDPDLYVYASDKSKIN

[3] = target: T2, Arabidopsis FAD3 (At2g29980) (Arabidopsis thaliana); remark: listed apart in the source
[4] = target: T1, Arabidopsis FAD2 (At3g12120) (Arabidopsis thaliana); remark: listed apart in the source

Molecule: Arabidopsis cytochrome b5 Cb5-B (At5g48810) (from UniProt Q9ZWT2 1-140)
16:2 content of cb5 mutant yeast co-expressing both, 15 C (GC-FID) (mol percentage of total fatty acids) [1]: 1.3 | 16:2 content of cb5 mutant yeast co-expressing both, 28 C (GC-FID) (mol percentage of total fatty acids) [1]: 1.2 | 18:2 content of cb5 mutant yeast co-expressing both, 15 C (GC-FID) (mol percentage of total fatty acids) [1]: 7.4 | 18:2 content of cb5 mutant yeast co-expressing both, 28 C (GC-FID) (mol percentage of total fatty acids) [1]: 6 | 18:3 content of cb5 mutant yeast co-expressing both, 15 C, 18:2 fed (GC-FID) (mol percentage of total fatty acids) [2]: 11.8 | 18:3 content of cb5 mutant yeast co-expressing both, 28 C, 18:2 fed (GC-FID) (mol percentage of total fatty acids) [2]: 8.2

B2: Arabidopsis cytochrome b5 Cb5-C (At2g46650) (protein, Arabidopsis thaliana, UniProt Q9ZNV4 1-132, looked up)
chain: MANLISFHDVAKHKCKNDCWILIHGKVYDISTFMDEHPGGDNVLLAVTGKDASIDFEDVNHSKDAKELMKKYCIGDVDQSTVPVTQQYIPPWEKESTAAETTKEESGKKLLIYLIPLLILGVAFALRFYNNK
16:2 content of cb5 mutant yeast co-expressing both, 15 C (GC-FID) (mol percentage of total fatty acids) [4]: 1.2 | 16:2 content of cb5 mutant yeast co-expressing both, 28 C (GC-FID) (mol percentage of total fatty acids) [4]: 0.9 | 18:2 content of cb5 mutant yeast co-expressing both, 15 C (GC-FID) (mol percentage of total fatty acids) [4]: 7.2 | 18:2 content of cb5 mutant yeast co-expressing both, 28 C (GC-FID) (mol percentage of total fatty acids) [4]: 6.4

Next, values leading:

18:3 content of cb5 mutant yeast co-expressing both, 15 C, 18:2 fed (GC-FID) (mol percentage of total fatty acids) [3]: 3.8 | 18:3 content of cb5 mutant yeast co-expressing both, 28 C, 18:2 fed (GC-FID) (mol percentage of total fatty acids) [3]: 3.9
B1: soybean (Glycine max) cytochrome b5 GmCb5-C2 (protein)
chain: MGSKTKTFTFEEVAKHNHRKDCWIIVKGKVYDVTPFLDDHPGGDEVLVTATEKDATTDFEDIGHSDSATQMMEKYFVGEVDTNTLPAQVTSNNSVRQPTQAPPAYNNQSSGFVVKMLQYIVPLLILAFAFGLQYYGKKNKSTESEN

18:3 content of cb5 mutant yeast co-expressing both, 15 C, 18:2 fed (GC-FID) (mol percentage of total fatty acids) [3]: 12.6 | 18:3 content of cb5 mutant yeast co-expressing both, 28 C, 18:2 fed (GC-FID) (mol percentage of total fatty acids) [3]: 8.2
B3: Arabidopsis cytochrome b5 Cb5-E (At2g32720) (protein, Arabidopsis thaliana, UniProt O48845 1-134, looked up)
chain: MGDEAKIFTLSEVSEHNQAHDCWIVINGKVYNVTKFLEDHPGGDDVLLSSTGKDATDDFEDVGHSESAREMMEQYYVGEIDPTTIPKKVKYTPPKQPHYNQDKTSEFIIKLLQFLVPLAILGLAVGIRIYTKSG

18:3 content of cb5 mutant yeast co-expressing both, 15 C, 18:2 fed (GC-FID) (mol percentage of total fatty acids) [3]: 2 | 18:3 content of cb5 mutant yeast co-expressing both, 28 C, 18:2 fed (GC-FID) (mol percentage of total fatty acids) [3]: 2.6
B4: soybean (Glycine max) cytochrome b5 GmCb5-C3 (protein)
chain: MASNPKTLTFEEVAKHNNKKDCWIIINGKVYDITPFLDEHPGGDEVLLTSTGKDATIDFEDVGHSDSAIEMMEKYFIGKVDTSTLPPKVSHSLPQPTQTHGAGNQSSGFVVKILQFLLPLLILGLAFALQYYGQKKHASTS
